Assay [1] concerns the target SNAP-25 peptide comprising amino acids 134-206 of SEQ ID NO: 5 (human). As to the kind of experiment: SPR, BIAcore 3000, peptide on CM5 chip, antibody as analyte, 1:1 model.
Assay [2] concerns the target SNAP-25 peptide comprising amino acids 134-197 of SEQ ID NO: 5 (human). Described as above.

This passage reports Kd, koff and kon results from US20100233802A1.

In assay [1], “mouse α-SNAP-25 monoclonal antibody MC-6050 (Research & Diagnostic Antibodies)” showed an equilibrium dissociation constant (Kd) of 19800 nM, a koff of 0.00607 s⁻¹ and an association rate constant (kon) of 306 M⁻¹ s⁻¹. In assay [2], this substance had a Kd of 0.497 nM, a dissociation rate constant (koff) of 0.000882 s⁻¹ and a kon of 1.78e+06 M⁻¹ s⁻¹.
For the substance “mouse α-SNAP-25 monoclonal antibody MC-6053 (Research & Diagnostic Antibodies)”, in assay [1], the equilibrium dissociation constant (Kd) came out at 240 nM and the off-rate (koff) was 2.56e-05 s⁻¹. In assay [2], the dissociation constant (Kd) was 0.508 nM, the koff is 0.00118 s⁻¹ and the on-rate (kon) is 2.32e+06 M⁻¹ s⁻¹.
